Experimental findings from patent US20110098212A1 are described below.

What all share (experiment): cell-based or functional assay
Assay [1] addresses chemokine receptor CCR8 (human) (UniProt P51685).
For assay [2], the target named is human chemokine receptor CCR5 (human) (UniProt P51681).
The target in assay [3] is chemokine receptor CCR2 (human) (UniProt P41597).
In assay [4] the target is chemokine receptor CCR4 (human) (UniProt P51679).
Assay [5] deals with chemokine receptor CCR6 (human) (UniProt P51684).

Regarding “GS-U83A (from UniProt P52460 5-97) (ligand)”, the blocking of CCL1 (1 nM) induced chemotaxis of HUT78 cells by 100 nM pre-treatment in assay [1] was determined as 10%. The same substance registered a reduction of HIV-1 JRCSF infection of CEM-NKR-CCR5-luc cells at 1 uM in assay [2] of 93%.
With “CCL2/MCP-1 (from UniProt P13500 24-99) (ligand)”, in assay [3], the calcium mobilisation, share of THP-1 cells responding was above 95%.
For “GSRIEGR-U83A (from UniProt P52460 5-97) (ligand)”, the blocking of CCL22 (10 nM) induced chemotaxis of HUT78 cells by 100 nM pre-treatment in assay [4] is 25%.
As to “CCL20/MIP-3alpha (from UniProt P78556 27-96) (ligand)”, the EC50, calcium mobilisation in CCR6-CHO cells in assay [5] was determined as 1.27 nM.
Take “CCL17/TARC (from UniProt Q92583 24-94) (ligand)”: in assay [4], the EC50, calcium mobilisation in CCR4-CHO cells is 0.24 nM and the chemotaxis of HUT78 cells, concentration of maximal efficacy was found to be 1 nM.
